± gives the standard error. Variants at the floor of the assay were thinned out.
B1: glmS ribozyme (parent)
chain: AUAAAAGCGCCAGAACUACAGAAAUGUAGUUGACGAGGAGGAGGUUUAUCGAAUUUUCGGCGGAUGCCUCCAAA

Columns and labels:
Settings in all cases: with glucosamine-6-phosphate
glucosamine-6-phosphate [1] = variants of: B1; assay: self-cleavage kobs at 40 uM GlcN6P; higher = faster cleavage; RNA array
Procedure, shortened: (§1)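 Tiles bearing barcoded ribozyme variants, transcribed in situ by E. coli RNA polymerase on sequenced MiSeq chips, were imaged over ~14 h at 37 °C using a hybridised Cy3 probe. Glucosamine-6-phosphate was supplied at 40 μM to 10 mM in HEPES/KCl/Mg(OAc)2 buffer. kobs came from one- or two-exponential decay fits to normalised per-tile medians, and weighted Michaelis–Menten fits then provided kcat and KM.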

glucosamine-6-phosphate [2] = variants of: B1; assay: self-cleavage kobs at 10000 uM GlcN6P; higher = faster cleavage; RNA array
Procedure, shortened: as §1

glucosamine-6-phosphate [3] = variants of: B1; assay: self-cleavage kobs at 640 uM GlcN6P; higher = faster cleavage; RNA array
Procedure, shortened: as §1

glucosamine-6-phosphate [4] = variants of: B1; assay: self-cleavage kobs at 2500 uM GlcN6P; higher = faster cleavage; RNA array
Procedure, shortened: as §1

glucosamine-6-phosphate [5] = variants of: B1; assay: self-cleavage kobs at 160 uM GlcN6P; higher = faster cleavage; RNA array
Procedure, shortened: as §1

Variant	self-cleavage kobs at 40 uM GlcN6P (glucosamine-6-phosphate [1]) [s⁻¹]	self-cleavage kobs at 10000 uM GlcN6P (glucosamine-6-phosphate [2]) [s⁻¹]	self-cleavage kobs at 640 uM GlcN6P (glucosamine-6-phosphate [3]) [s⁻¹]	self-cleavage kobs at 2500 uM GlcN6P (glucosamine-6-phosphate [4]) [s⁻¹]	self-cleavage kobs at 160 uM GlcN6P (glucosamine-6-phosphate [5]) [s⁻¹]
C16U U30A G37A G40U U65A	< 1e-05	< 1e-05			
C34A A64C	< 1e-05	< 1e-05	< 1e-05	< 1e-05	
C34A A64U	< 1e-05	< 1e-05	< 1e-05		< 1e-05
U30C G38C	< 1e-05		< 1e-05	< 1e-05	
U30C G40C U49G G51A	< 1e-05	< 1e-05			
C16G G43C	< 1e-05	< 1e-05	< 1e-05		
G32C G37C A48U G59C	< 1e-05				
A15U C16G C58U G59U	< 1e-05		< 1e-05	< 1e-05	
C34G A42U	< 1e-05	< 1e-05	< 1e-05	< 1e-05	< 1e-05
C16G G35C	< 1e-05	< 1e-05	< 1e-05	< 1e-05	
A15U G38A U56C	< 1e-05				
G32C U49A	< 1e-05	< 1e-05	< 1e-05		< 1e-05
G32C U49C	< 1e-05				< 1e-05
U30C A52C A64C	< 1e-05				
G29C U45A	7.41e-05 ± 2.6e-05	0.00281 ± 0.00086	0.000828 ± 0.00023	0.000499 ± 0.00024	
G29A A42C	< 1e-05	< 1e-05	< 1e-05		< 1e-05
G32C A53U G66U	< 1e-05				
C16A G44C	< 1e-05	< 1e-05	< 1e-05		< 1e-05
U30A A52C	< 1e-05	< 1e-05	< 1e-05	< 1e-05	< 1e-05
G29C G41U U46C G62U	< 1e-05	< 1e-05			
G32C A39C	< 1e-05				< 1e-05
G32C A39G	< 1e-05	0.000101 ± 1.4e-05		3.52e-05 ± 1.2e-05	< 1e-05
G32U G41C	< 1e-05				< 1e-05

Variant	self-cleavage kobs at 40 uM GlcN6P (glucosamine-6-phosphate [1]) [s⁻¹]	self-cleavage kobs at 10000 uM GlcN6P (glucosamine-6-phosphate [2]) [s⁻¹]	self-cleavage kobs at 640 uM GlcN6P (glucosamine-6-phosphate [3]) [s⁻¹]	self-cleavage kobs at 2500 uM GlcN6P (glucosamine-6-phosphate [4]) [s⁻¹]	self-cleavage kobs at 160 uM GlcN6P (glucosamine-6-phosphate [5]) [s⁻¹]
A33C G43C	< 1e-05	< 1e-05	< 1e-05	< 1e-05	< 1e-05
U31C G60U	< 1e-05	< 1e-05			< 1e-05
C34G U45G C70A	< 1e-05	< 1e-05		< 1e-05	< 1e-05
C16U C34U G37U	< 1e-05				
A33G C50A A53C G60C	< 1e-05				
G32A G35C C67G	< 1e-05	< 1e-05			
U31G U47C	2.84e-05 ± 1.3e-05		0.000197 ± 4.8e-05	0.000501 ± 0.00015	
U30A A53C G60U	< 1e-05		< 1e-05	< 1e-05	< 1e-05
G29U A48C G63U	< 1e-05	< 1e-05			
G29C U30G U31A C50U	< 1e-05		< 1e-05		
C34A C70U	< 1e-05				< 1e-05
U31C G44A	< 1e-05				< 1e-05
G29C C50G	5.44e-05 ± 1.3e-05	2.54e-05 ± 1.1e-05	0.000208 ± 4.9e-05	0.000178 ± 3.6e-05	0.000194 ± 5.9e-05
G35A U49G	< 1e-05				
C16G C34A	< 1e-05	< 1e-05	< 1e-05		
C16A G62U	< 1e-05		< 1e-05		< 1e-05
C16A C34A	< 1e-05	< 1e-05	< 1e-05	< 1e-05	< 1e-05
C16A C34U	< 1e-05		< 1e-05	< 1e-05	< 1e-05
C34U G41C G59A A64G	< 1e-05		< 1e-05		< 1e-05
C16A G37U G43U U57C	< 1e-05	< 1e-05	< 1e-05		
U30A G38C A52G U69A	< 1e-05	< 1e-05		< 1e-05	
C16A A42U	< 1e-05				< 1e-05
C16G A36U C50G C68G	0.000149 ± 4.4e-05	0.000404 ± 7.1e-05	0.000979 ± 0.00021		0.000256 ± 4.1e-05

Variant	self-cleavage kobs at 40 uM GlcN6P (glucosamine-6-phosphate [1]) [s⁻¹]	self-cleavage kobs at 10000 uM GlcN6P (glucosamine-6-phosphate [2]) [s⁻¹]	self-cleavage kobs at 640 uM GlcN6P (glucosamine-6-phosphate [3]) [s⁻¹]	self-cleavage kobs at 2500 uM GlcN6P (glucosamine-6-phosphate [4]) [s⁻¹]	self-cleavage kobs at 160 uM GlcN6P (glucosamine-6-phosphate [5]) [s⁻¹]
C16G G59C	< 1e-05	< 1e-05	< 1e-05	< 1e-05	< 1e-05
C16A G35C	< 1e-05	< 1e-05	< 1e-05	< 1e-05	< 1e-05
C34G U54A	< 1e-05	< 1e-05	< 1e-05	< 1e-05	< 1e-05
U30G G41U C68A	< 1e-05	< 1e-05			
C16U A39C C68A	< 1e-05	< 1e-05			
G29C A33G G38A G40C G43C	< 1e-05				
G29U U30C	< 1e-05		< 1e-05	< 1e-05	
A33C C71U	< 1e-05	4.08e-05 ± 1e-05			< 1e-05
U31G C71A	0.000103 ± 1.4e-05	0.00392 ± 0.00068	0.000376 ± 8.1e-05	0.000715 ± 0.00018	0.000505 ± 0.00012
U30C U47C C58A U65A	< 1e-05				
A33U A36C A39C G41C G44A U46G G51U C58U A64U	< 1e-05	< 1e-05			
A33G U45A C50G U54G G60A C67A	0.000354 ± 9.5e-05	0.000164 ± 5.5e-05			
G32C U45C U69A	< 1e-05				
G29C A36U A39G G63U	< 1e-05	< 1e-05			
U30G A48C C70G	< 1e-05				
C34A A52U	< 1e-05	< 1e-05	< 1e-05		
U31C A48U C50A A53C U65G G66A	< 1e-05	< 1e-05		< 1e-05	
A33G G40U G59U	< 1e-05		< 1e-05	< 1e-05	< 1e-05
U31G G38U C61U C71U	< 1e-05				
A15U G29U G60C	< 1e-05				
G29C C34A	< 1e-05	< 1e-05	< 1e-05	< 1e-05	< 1e-05
G32C G35A G51U	< 1e-05	< 1e-05		< 1e-05	
C34U U69G	0.000246 ± 5.1e-05	0.000285 ± 4.5e-05	0.000467 ± 0.00011	0.00161 ± 0.00069	5.32e-05 ± 2.5e-05

Variant	self-cleavage kobs at 40 uM GlcN6P (glucosamine-6-phosphate [1]) [s⁻¹]	self-cleavage kobs at 10000 uM GlcN6P (glucosamine-6-phosphate [2]) [s⁻¹]	self-cleavage kobs at 640 uM GlcN6P (glucosamine-6-phosphate [3]) [s⁻¹]	self-cleavage kobs at 2500 uM GlcN6P (glucosamine-6-phosphate [4]) [s⁻¹]	self-cleavage kobs at 160 uM GlcN6P (glucosamine-6-phosphate [5]) [s⁻¹]
U30C U57C	< 1e-05		< 1e-05		
U31C C50G C70U	7.5e-05 ± 2.8e-05	4.29e-05 ± 1.3e-05	7.86e-05 ± 1.6e-05	4.19e-05 ± 1.2e-05	7.9e-05 ± 1.5e-05
U31C G35U A39C G44U U55A	< 1e-05	< 1e-05	< 1e-05	< 1e-05	< 1e-05
A33C A36G C67G	< 1e-05				
C34G G43C U47A U49C U55G	< 1e-05	< 1e-05			
G32A A36C A42G C70G	< 1e-05	< 1e-05			
C34G G37U G38C U47G U56C	< 1e-05	< 1e-05			
G32C G40A C50U C68A	< 1e-05	< 1e-05			
C34U U57C	< 1e-05	< 1e-05	< 1e-05	< 1e-05	< 1e-05
A33U A48G A52U	< 1e-05				
U30C G38U G43C U46G	< 1e-05	< 1e-05	< 1e-05		
A15U G43U U54C G60C C70G	< 1e-05	< 1e-05			
G35A G41A A48G C61U	< 1e-05				
A24C A48C G62U G63U C70G	< 1e-05	< 1e-05			
G32C G37C C58U	< 1e-05				
U30A U57G U65G	< 1e-05				
A15U U30C G51C	< 1e-05				
A33C C34G C71U	< 1e-05			< 1e-05	
U30C A42U G44A A48G G59A	< 1e-05			< 1e-05	
G29A G43A	< 1e-05		< 1e-05	< 1e-05	< 1e-05
U30A U49C	< 1e-05	< 1e-05	< 1e-05	< 1e-05	< 1e-05
C34U C50G	5.12e-05 ± 1.3e-05		0.000831 ± 0.00035	5.23e-05 ± 2.2e-05	0.000184 ± 3.2e-05
